In paper PMC3634029 (PLoS ONE, 2013) one finds EC50 data, which are given here for 1 molecule.

This assay addresses T1, Full-length recombinant FVIII (Kogenate FS) (Homo sapiens, UniProt P00451).
T1 construct: coagulation factor VIII, human, full-length recombinant (Kogenate FS); also called coagulation factor VIII; source: provided by Bayer Healthcare (Kogenate FS), reconstituted and dialyzed into Borate Buffer
The assay can be described thus: ELISA; FVIII (6.6 nM in PBS) coated; Bo2C11 serially diluted 1:3 from 60 nM; detected by anti-human IgG. As to conditions: both partners purified. (In general: In an ELISA, binding on a coated surface is turned into a signal by an enzyme label.)

T1 sequence (P00451 20-2351): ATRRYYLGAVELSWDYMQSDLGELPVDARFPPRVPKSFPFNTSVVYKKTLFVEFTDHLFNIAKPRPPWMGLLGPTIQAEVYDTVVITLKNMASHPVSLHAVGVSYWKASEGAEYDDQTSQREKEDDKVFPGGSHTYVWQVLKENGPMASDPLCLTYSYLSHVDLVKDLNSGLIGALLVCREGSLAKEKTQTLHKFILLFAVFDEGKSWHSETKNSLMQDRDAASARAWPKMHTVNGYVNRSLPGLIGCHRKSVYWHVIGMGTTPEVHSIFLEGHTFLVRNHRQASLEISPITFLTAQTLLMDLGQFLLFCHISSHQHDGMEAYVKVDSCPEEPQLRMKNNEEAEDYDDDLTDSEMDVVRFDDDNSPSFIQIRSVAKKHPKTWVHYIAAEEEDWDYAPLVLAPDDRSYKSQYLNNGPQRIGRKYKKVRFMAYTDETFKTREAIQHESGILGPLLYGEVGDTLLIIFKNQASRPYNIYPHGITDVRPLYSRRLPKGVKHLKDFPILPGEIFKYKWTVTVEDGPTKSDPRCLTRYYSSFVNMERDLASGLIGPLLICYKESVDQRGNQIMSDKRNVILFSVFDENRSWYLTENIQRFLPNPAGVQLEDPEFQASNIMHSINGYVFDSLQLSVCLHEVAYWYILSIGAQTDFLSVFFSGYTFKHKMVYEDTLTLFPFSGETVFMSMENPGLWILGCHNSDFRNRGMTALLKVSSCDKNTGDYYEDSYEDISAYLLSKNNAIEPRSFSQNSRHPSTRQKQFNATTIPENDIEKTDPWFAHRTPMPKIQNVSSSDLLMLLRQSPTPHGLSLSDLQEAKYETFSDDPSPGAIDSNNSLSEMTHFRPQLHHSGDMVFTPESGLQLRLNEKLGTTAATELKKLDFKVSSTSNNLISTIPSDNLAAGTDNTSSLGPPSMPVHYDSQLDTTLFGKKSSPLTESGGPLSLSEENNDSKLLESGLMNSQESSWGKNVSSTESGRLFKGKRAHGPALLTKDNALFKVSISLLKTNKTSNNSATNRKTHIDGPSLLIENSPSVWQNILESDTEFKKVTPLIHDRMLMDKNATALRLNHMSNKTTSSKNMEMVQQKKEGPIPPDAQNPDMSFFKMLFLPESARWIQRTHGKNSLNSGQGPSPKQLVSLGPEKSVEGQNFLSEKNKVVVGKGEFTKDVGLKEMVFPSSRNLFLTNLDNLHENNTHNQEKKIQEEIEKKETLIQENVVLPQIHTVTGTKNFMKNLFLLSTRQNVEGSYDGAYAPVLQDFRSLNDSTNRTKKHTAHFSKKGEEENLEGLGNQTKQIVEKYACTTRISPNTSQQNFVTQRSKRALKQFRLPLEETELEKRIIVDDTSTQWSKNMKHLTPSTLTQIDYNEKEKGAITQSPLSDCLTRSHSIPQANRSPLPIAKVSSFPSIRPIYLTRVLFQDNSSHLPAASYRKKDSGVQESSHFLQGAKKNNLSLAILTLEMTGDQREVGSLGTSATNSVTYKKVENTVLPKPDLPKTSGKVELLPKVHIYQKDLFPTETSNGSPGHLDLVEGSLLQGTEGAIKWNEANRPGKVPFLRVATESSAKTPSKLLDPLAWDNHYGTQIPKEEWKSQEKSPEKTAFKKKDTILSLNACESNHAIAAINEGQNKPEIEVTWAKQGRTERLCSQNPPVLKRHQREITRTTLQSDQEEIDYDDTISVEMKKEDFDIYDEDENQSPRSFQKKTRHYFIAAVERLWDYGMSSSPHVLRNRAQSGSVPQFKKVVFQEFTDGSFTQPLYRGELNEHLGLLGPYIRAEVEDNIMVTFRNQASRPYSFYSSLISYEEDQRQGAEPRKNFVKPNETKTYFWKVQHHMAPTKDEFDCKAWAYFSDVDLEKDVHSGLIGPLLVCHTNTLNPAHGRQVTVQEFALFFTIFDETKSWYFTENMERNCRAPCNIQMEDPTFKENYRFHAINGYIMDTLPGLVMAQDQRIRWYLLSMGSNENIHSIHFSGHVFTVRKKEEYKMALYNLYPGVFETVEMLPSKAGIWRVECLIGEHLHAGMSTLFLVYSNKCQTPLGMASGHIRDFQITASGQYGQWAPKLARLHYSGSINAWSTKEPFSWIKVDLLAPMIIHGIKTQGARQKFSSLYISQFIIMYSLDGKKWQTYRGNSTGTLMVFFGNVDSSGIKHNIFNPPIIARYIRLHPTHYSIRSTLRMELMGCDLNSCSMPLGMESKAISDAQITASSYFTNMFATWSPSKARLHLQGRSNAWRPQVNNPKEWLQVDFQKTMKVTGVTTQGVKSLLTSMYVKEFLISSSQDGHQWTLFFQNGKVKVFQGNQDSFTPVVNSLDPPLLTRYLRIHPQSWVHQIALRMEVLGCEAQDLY

B1: human monoclonal anti-FVIII antibody Bo2C11 (antibody, V domains shown)
VH: QVQLVQSGAEVKKPGASVKVSCKVSGYTLTELPVHWVGQAPGKGLEWVGSFDPESGESIYAREFQGSVTMTADTSTDIAYMELSSLRSDDTAVYYCAVPDPDAFDIWGQGTMVTVSS
VL: EIALTQSPGTLSLSPGERATLSCRASQSFSSSYLAWYQQKPGQAPRLLIYGASTRATGIPDRFSGSGSGTDFTLTISRLEPEDFAVYYCQKYGTSAITFGQGTRLEIK
For B1, the EC50 worked out at 2.66 nM.

As a reminder, the EC50 is the midpoint of the concentration-response curve.
